Reference: article PMC3760141 (Cell reports, 2013)

B1: full-length p202 (purified) (natural protein, mouse, UniProt Q9R002 1-445, looked up)
chain: MSNRNLRSSTNSEFSEGQHQTPSSDSSGHGEDQPQASPGPNKKSHTPKKNISKGAVLHEKPMTVMVLTATEPFNYKEGKENMFHATVATESQYYRVKVFNMDLKEKFTENKFITISKYFNSSGILEINETATVSEAAPNQIIEVPKNIIRSAKETLKISKIKELDSGTLIYGVFAVEKKKVNDKSITFKIKDNEDNIKVVWDKKQHNINYEKGDKLQLFSFHLRKGNGKPILHSGNHSFIKGEKLLKESFEGDGYHKGPKQVVALKATKLFTYDSIKSKKMFHATVATDTEFFRVMVFEENLEKKFIPGNTIALSDYFGMYGSLAIHEYSSVSEVKSQNKEDSSSSDERLIEHLKICDLHLQTKERLVDGEFKVYRKSTGNNCICYGIWDDTGAMKVVVSGQLTSVNCEIGNTIRLVCFELTSNADEWFLRSTRYSYMEVIMPEK
B2: p202, endogenous in bone marrow-derived macrophages (natural protein, UniProt Q9R002 1-445, looked up)
chain: MSNRNLRSSTNSEFSEGQHQTPSSDSSGHGEDQPQASPGPNKKSHTPKKNISKGAVLHEKPMTVMVLTATEPFNYKEGKENMFHATVATESQYYRVKVFNMDLKEKFTENKFITISKYFNSSGILEINETATVSEAAPNQIIEVPKNIIRSAKETLKISKIKELDSGTLIYGVFAVEKKKVNDKSITFKIKDNEDNIKVVWDKKQHNINYEKGDKLQLFSFHLRKGNGKPILHSGNHSFIKGEKLLKESFEGDGYHKGPKQVVALKATKLFTYDSIKSKKMFHATVATDTEFFRVMVFEENLEKKFIPGNTIALSDYFGMYGSLAIHEYSSVSEVKSQNKEDSSSSDERLIEHLKICDLHLQTKERLVDGEFKVYRKSTGNNCICYGIWDDTGAMKVVVSGQLTSVNCEIGNTIRLVCFELTSNADEWFLRSTRYSYMEVIMPEK
B3: p202 HIN2 (K244-K445) (domain or fragment, mouse, UniProt Q9R002 244-445, looked up)
chain: KLLKESFEGDGYHKGPKQVVALKATKLFTYDSIKSKKMFHATVATDTEFFRVMVFEENLEKKFIPGNTIALSDYFGMYGSLAIHEYSSVSEVKSQNKEDSSSSDERLIEHLKICDLHLQTKERLVDGEFKVYRKSTGNNCICYGIWDDTGAMKVVVSGQLTSVNCEIGNTIRLVCFELTSNADEWFLRSTRYSYMEVIMPEK
B4: p202 HIN2 R376E (domain or fragment, mouse, UniProt Q9R002 244-445, looked up)
chain: KLLKESFEGDGYHKGPKQVVALKATKLFTYDSIKSKKMFHATVATDTEFFRVMVFEENLEKKFIPGNTIALSDYFGMYGSLAIHEYSSVSEVKSQNKEDSSSSDERLIEHLKICDLHLQTKERLVDGEFKVYEKSTGNNCICYGIWDDTGAMKVVVSGQLTSVNCEIGNTIRLVCFELTSNADEWFLRSTRYSYMEVIMPEK
B5: mouse AIM2 HIN (domain or fragment, UniProt Q91VJ1 144-341, looked up)
chain: MVAEQEAIREDLQKDPLVVTVLKAINPFECETQEGRQEIFHATVATETDFFFVKVLNAQFKDKFIPKRTIKISNYLWHSNFMEVTSSSVVVDVESNHEVPNNVVKRARETPRISKLKIQPCGTIVNGLFKVQKITEEKDRVLYGIHDKTGTMEVLVLGNPSKTKCEEGDKIRLTFFEVSKNGVKIQLKSGPCSFFKVI

What was measured:
[1] = biological target: the molecule itself; experiment: SEC-MALS
[2] = biological target: the molecule itself; experiment: cross-linking
[3] = biological target: B5; experiment: ITC
[4] = biological target: B3; experiment: ITC

Row | Binder | stoichiometry N [1] | further results
1 | B1 | 4 | –
2 | B2 | – | stoichiometry N [2]: 4
3 | B3 | 4 | stoichiometry N [3]: 2 p202 HIN2 per AIM2 HIN
4 | B4 | 2 | –
5 | B5 | – | Kd [4]: 12.6 µM
